The results in this text go back to patent US20250223369A1 (WISTAR INSTITUTE OF ANATOMY AND BIOLOGY, published 2025).

Test [1] concerns the target T1, recombinant human Siglec-7 protein (human, UniProt Q9Y286 19-353, limits assumed). Description: SPR, titration of anti-Siglec-7 on recombinant human Siglec-7 protein. For orientation: SPR reads the build-up and loss of mass on a sensor chip optically.
Test [2] deals with T1, recombinant human Siglec-7 protein. Nature of the test: SPR, DB7.2 and recombinant human Siglec-7 protein.
Test [3] concerns the target T2, human Siglec 7 on cells (human, UniProt Q9Y286 19-467). Description: cell-based or functional assay.
A further test concerns the target T3, Siglec 9 on 293T cells (UniProt Q9Y336 18-463, limits assumed).
T3 construct: whole, on cells
Description: flow cytometry on Siglec 9 overexpressing HEK293T cells. From the text: BD LSRII flow cytometer was used for staining of cells. BD FACS Aria cell sorter (BD Biosciences) was used for the sorting of Siglec 7/FSHR stably expressing cells. Anti-human antibodies used were directly fluorochrome conjugated. […] For the non-conjugated primary antibodies, PE-secondary anti-human (H+L) (Invitrogen), PE/AF647—secondary anti-human F(ab′)₂ (Jackson ImmunoResearch Laboratories Inc) and APC—secondary anti-mouse IgG (Poly4053, BioLegend) were used. Live/Dead Violet viability kit (Invitrogen) was used to exclude dead cells from analysis.
Three mAbs targeting Siglec 7 were sequenced and studied in more detail. […] (FIG. 10B). […] Cells were labeled with DAPI (nuclei), GFP (Siglec 7) and Texas Red (Anti-Siglec 7).
(A flow cytometer gives signals particle by particle.)

Test [4] addresses T2, human Siglec 7 on cells. Description: flow cytometry of human NK cells with sera of DMAb-electroporated mice, anti-human IgG.

T1 sequence (Q9Y286 19-353 limits assumed): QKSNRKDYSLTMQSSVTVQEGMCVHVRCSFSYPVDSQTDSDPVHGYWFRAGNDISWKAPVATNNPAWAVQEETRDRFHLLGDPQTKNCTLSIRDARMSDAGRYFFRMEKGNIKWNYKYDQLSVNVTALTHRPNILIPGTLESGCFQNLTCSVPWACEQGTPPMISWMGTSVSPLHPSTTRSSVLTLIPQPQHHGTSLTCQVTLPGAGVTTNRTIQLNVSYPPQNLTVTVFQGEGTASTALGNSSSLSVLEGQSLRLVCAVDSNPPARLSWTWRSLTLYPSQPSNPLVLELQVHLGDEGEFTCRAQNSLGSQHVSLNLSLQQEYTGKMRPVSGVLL
T3 sequence (Q9Y336 18-463 limits assumed): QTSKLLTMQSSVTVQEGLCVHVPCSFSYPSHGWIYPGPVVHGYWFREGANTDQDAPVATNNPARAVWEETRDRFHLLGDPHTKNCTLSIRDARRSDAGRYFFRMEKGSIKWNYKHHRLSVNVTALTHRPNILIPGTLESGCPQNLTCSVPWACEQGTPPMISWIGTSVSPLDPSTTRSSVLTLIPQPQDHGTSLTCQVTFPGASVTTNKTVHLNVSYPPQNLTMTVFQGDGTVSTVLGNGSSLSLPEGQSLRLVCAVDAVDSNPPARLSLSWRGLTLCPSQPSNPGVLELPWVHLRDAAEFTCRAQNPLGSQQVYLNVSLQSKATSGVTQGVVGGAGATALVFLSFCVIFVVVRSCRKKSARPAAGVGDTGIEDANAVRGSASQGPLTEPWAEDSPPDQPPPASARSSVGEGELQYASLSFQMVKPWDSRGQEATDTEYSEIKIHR
T2 sequence (Q9Y286 19-467): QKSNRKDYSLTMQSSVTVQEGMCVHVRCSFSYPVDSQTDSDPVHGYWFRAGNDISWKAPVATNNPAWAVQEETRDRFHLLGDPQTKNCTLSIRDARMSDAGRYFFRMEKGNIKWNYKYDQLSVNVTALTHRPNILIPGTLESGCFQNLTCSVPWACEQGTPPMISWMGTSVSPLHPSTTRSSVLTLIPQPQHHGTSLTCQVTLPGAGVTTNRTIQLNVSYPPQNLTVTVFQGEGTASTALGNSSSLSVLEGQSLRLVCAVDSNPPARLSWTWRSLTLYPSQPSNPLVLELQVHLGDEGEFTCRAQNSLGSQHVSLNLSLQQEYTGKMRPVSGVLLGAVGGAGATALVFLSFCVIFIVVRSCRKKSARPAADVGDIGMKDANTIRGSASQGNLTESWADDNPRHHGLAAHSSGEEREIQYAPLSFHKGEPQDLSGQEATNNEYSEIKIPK

B1: DB-S7-2 anti-Siglec 7 antibody (antibody, V domains shown)
VH: QVQLVESGGGVVQPGRSLRLSCAASGFTFRTDAMHWVRQAPGKGLEWVAVIWYDGSIKYHADSVKGRFTISRDNSKNTLYLEMNSLRAEDTAVYYCARDRSNSLDHWGQGILVSVSS
VL: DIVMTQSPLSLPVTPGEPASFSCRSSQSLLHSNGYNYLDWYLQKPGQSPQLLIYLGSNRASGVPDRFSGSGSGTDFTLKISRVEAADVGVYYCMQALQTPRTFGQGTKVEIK
notes: Raised in H2L2 mice (hybridoma clone in the first screens), then expressed as human IgG1 HC and LC from pVax1 in Expi293F cells or in mice (DMAb); also called DB7.2; DB-S7-2 DMAb
By Kd is commonly meant the concentration at which binding is half-saturated. As a reminder, the koff is the first-order rate constant of dissociation. For orientation: kon means a measure of how fast the partners come together. Regarding B1, in test [1], the Kd was determined as 0.044 nM. In test [2], the off-rate constant (koff) came to 3.6e-05 s⁻¹, the on-rate (kon) was 830000 M⁻¹ s⁻¹ and the t1/2 was 5.33 h. Also, in the test with human Siglec 7 on cells [3], the “killing of OVISE cells with human PBMCs (cell index vs dose), IC50” value was found to be 82.7 nM and the “killing of PEO4 cells with human PBMCs (xCELLigence), EC50” value was determined as 68.9 nM. The binding result in the test with Siglec 9 on 293T cells is recorded as “no binding”.

B2: DB7.2_TM Mod (antibody, V domains shown)
VH: QVQLVESGGGVVQPGRSLRLSCAASGFTFRTDAMHWVRQAPGKGLEWVAVIWYDGSIKYHADSVKGRFTISRDNSKNTLYLEMNSLRAEDTAVYYCARDRSNSLDHWGQGILVSVSS
VL: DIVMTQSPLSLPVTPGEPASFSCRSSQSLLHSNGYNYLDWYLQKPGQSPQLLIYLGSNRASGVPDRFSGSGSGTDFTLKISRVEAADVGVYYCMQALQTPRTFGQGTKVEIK
On to B2, for which the “killing of OVISE cells with human PBMCs (cell index vs dose), IC50” value in the test with human Siglec 7 on cells [3] stood at 192 nM.

B3: DB-S7-1 anti-Siglec 7 antibody (antibody, V domains shown)
VH: QVQLVESGGGVVQPGRSLRLSCAASGFTFRTDAMHWVRQAPGKGLEWVAVIWYDGSIKYHADSVKGRFTISRDNSKNTLYLEMNSLRAEDTAVYYCARDRSNSLDHWGQGILVSVSS
VL: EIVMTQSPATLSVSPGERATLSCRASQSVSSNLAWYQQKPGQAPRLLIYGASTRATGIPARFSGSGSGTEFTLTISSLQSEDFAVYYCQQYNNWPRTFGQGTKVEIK
notes: Raised in H2L2 mice (hybridoma clone in the first screens), then expressed as human IgG1 HC and LC from pVax1 in Expi293F cells or in mice (DMAb); also called DB7.1; DB-S7-1 DMAb
In the case of B3, the binding result is given as “binds” with human Siglec 7 on cells [4] and “no binding” in the test with Siglec 9 on 293T cells.

B4: DB-S7-7 anti-Siglec 7 antibody (antibody, V domains shown)
VH: QVQLVESGGGVVQPGRSLRLSCAASGFTFRTDAMHWVRQAPGKGLEWVAVIWYDGSIKYHADSVKGRFTISRDNSKNTLYLEMNSLRAEDTAVYYCARDRSNSLDHWGQGILVSVSS
VL: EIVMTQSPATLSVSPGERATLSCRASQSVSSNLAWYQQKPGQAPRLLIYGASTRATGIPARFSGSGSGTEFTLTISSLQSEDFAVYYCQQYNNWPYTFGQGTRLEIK
notes: Raised in H2L2 mice (hybridoma clone in the first screens), then expressed as human IgG1 HC and LC from pVax1 in Expi293F cells or in mice (DMAb); also called DB7.7; DB-S7-7 DMAb
Consider B4, for which the binding result in the test with Siglec 9 on 293T cells is on record as “no binding”.
